Values quoted from earlier work in publication PMC2660313.

Target: Dystrophin WW domain+EF-hand (Drosophila melanogaster) (UniProt Q9VDW6)
Sequence (Q9VDW6 2840-3106): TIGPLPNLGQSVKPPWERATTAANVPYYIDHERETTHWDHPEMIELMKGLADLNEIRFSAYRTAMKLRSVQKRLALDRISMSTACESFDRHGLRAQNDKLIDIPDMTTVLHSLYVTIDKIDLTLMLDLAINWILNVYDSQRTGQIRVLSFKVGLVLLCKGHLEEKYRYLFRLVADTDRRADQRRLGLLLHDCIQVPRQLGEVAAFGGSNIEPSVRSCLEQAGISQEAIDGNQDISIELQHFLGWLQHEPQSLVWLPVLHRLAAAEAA

Kd: 248 µM
Substance: p53 peptide (negative control) (from UniProt P04637)
